Reference: article PMC4777398 (PLoS ONE, 2016)

Target: pre-dimerized IMPα2/IMPβ1 heterodimer (GST-fused mouse proteins) (mouse, UniProt P52293 1-529; P70168 1-876)
Experiment: AlphaScreen or HTRF
Conditions: both partners purified

B1: His6-GFP-fused wt P-CTD (rabies virus P-protein C-terminal domain) (domain or fragment)
chain: VAQVAPGPPALEWSATNEEDDLSVEAEIAHQIAESFSKKYKFPSRSSGIFLYNFEQLKMNLDDIVKEAKNVPGVTRLAHDGSKIPLRCVLGWVALANSKKFQLLVEADKLSKIMQDDLNRYTSC
- Kd: 1.7 ± 0.6 nM
